Consider five molecules from article PMC6294515, “Structural basis of the specific interaction of SMRT corepressor with histone deacetylase 4” (Nucleic Acids Research, 2018).

Data set [1] deals with HDAC4c D759Y. To be noted: HDAC4c mutant versus wild-type; cited from earlier work. The source says:
Next, we analyzed the mutational effects of SM1 mutants by OPTHiS screening (Figure 5A). […] In the peptide-complex structures, G+1, S+2 and T+4 residues on both peptides interact, directly or through water molecules, with residues on the cleft wall of the structural zinc-binding subdomain (Figure 3E). Mutations in this peptide region (G+1R, S+2D and T+4N/T+4A) altered the binding affin ... || Among the seven HDACs whose catalytic domain structures have been reported, HDAC4c is unique in that it has an open conformation when it binds to non-peptide molecules. In agreement with this, mutations at the ^+1GSI^+3 residues of two motifs and R+9 residue of the SM1 lead to a loss of its binding activity to HDAC4c/-5c (Figures 1 and 5). The class IIa HDAC-specific residues (D759, H842, and F871), which are located at the cleft to and entrance to the catalytic zinc-binding site, interact directly or indirectly with these residues of bound peptides (Figure 3D and E). Further, HDAC4c mutants o ...

In data set [2] the test system is HDAC4. The following applies: cited from earlier work. An excerpt:
In contrast to other HDACs, class IIa HDACs have low deacetylase activity ([33]). However, their HDAC domains are directly involved in the transcriptional repression of several genes by forming a supra-complex with the NCoR/SMRT-HDAC3 complex ([16],[17]).

Data set [3] concerns HDAC4c. In words: Interaction with HDAC4c (yeast two-hybrid, GST pull-down, BiFC). The following applies: for interaction with HDAC4c, domain mapping: yeast two-hybrid only, strain EGY48, LexA-fused HDAC4c and SRD3c deletion constructs, liquid β-galactosidase assay.
In data set [4] the test system is HDAC5c. Briefly: Interaction with HDAC5c (yeast two-hybrid, GST pull-down, BiFC). The following applies: for interaction with HDAC5c, domain mapping: yeast two-hybrid only, strain EGY48, LexA-fused HDAC5c and SRD3c deletion constructs, liquid β-galactosidase assay.

Regarding “GSITQGIPR [SM1, conserved GSI motif 1361-1369 of SRD3c, …]”, in data set [1], the “binding affinity to HDAC4c D759Y” value is given as “abrogated interactions”.
Consider “SMRT: silencing mediator for retinoid and thyroid receptor, general corepressor”, for which, in data set [2], the “change in deacetylase activity of HDAC4 in the presence of SMRT” value is “lack of noticeable changes in the deacetylase activity of HDAC4”.

B1: SRD3n: N-terminal region of SRD3 (R1128–E1289) (protein, UniProt Q9Y618 1128-1289, looked up, fragment)
chain: GMSVQLHVPYSEHAKAPVGPVTMGLPLPMDPKKLAPFSGVKQEQLSPRGQAGPPESLGVPTAQEASVLRGTALGSVPGGSITKGIPSTRVPSDSAITYRGSITHGTPADVLYKGTITRIIGEDSPSRLDRGREDSLPKGHVIYEGKKGHVLSYEGGMSVTQC
B1: the “binding to HDAC4c” value in data set [3] (yeast two-hybrid (β-galactosidase), GST pull-down, BiFC in HEK293 cells, result in words) is recorded as “marginal interaction”. The “binding to HDAC5c” value in data set [4] (yeast two-hybrid (β-galactosidase), in vitro GST pull-down, BiFC in HEK293 cells, result in words) is reported as “marginal interaction”.

B2: II: SRD3c deletion construct P1396–S1515 (protein, UniProt Q9Y618 1396-1515, looked up, fragment)
chain: AYKTQALGPLKLKPAHEGLVATVKEAGRSIHEIPREELRHTPELPLAPRPLKEGSITQGTPLKYDTGASTTGSKKHDVRSLIGSPGRTFPPVHPLDVMADARALERACYEESLKSRPGTA
Regarding B2, the “interaction with HDAC4c, domain mapping” value in data set [3] is listed as “independently interacted with HDAC4c/-5c, although the binding strength of region II was relatively weaker than that of region I-A”. In data set [4], the “interaction with HDAC5c, domain mapping” value is reported as “independently interacted with HDAC4c/-5c, although the binding strength of region II was relatively weaker than that of region I-A”.

B3: I-A: SRD3c deletion construct K1316–G1390 (protein, UniProt Q9Y618 1316-1390, looked up, fragment)
chain: GRVGRAISSASIEGLMGRAIPPERHSPHHLKEQHHIRGSITQGIPRSYVEAQEDYLRREAKLLKREGTPPPPPPS
For the molecule B3, the “interaction with HDAC4c, domain mapping” value in data set [3] is reported as “independently interacted with HDAC4c/-5c”. Also, in data set [4], the “interaction with HDAC5c, domain mapping” value was “independently interacted with HDAC4c/-5c”.
